What was measured:
hIL-4Rα-Mu243 = biological target: T1, hIL-4Rα-Mu243 (human, UniProt P24394 26-232); assay: SPR, Biacore T200, by the methods of Example 2
T1 construct: Printed positions fit the mature protein; also called V69F/S70Q/A71L; not shown: C-terminal his-tag
T1 chain: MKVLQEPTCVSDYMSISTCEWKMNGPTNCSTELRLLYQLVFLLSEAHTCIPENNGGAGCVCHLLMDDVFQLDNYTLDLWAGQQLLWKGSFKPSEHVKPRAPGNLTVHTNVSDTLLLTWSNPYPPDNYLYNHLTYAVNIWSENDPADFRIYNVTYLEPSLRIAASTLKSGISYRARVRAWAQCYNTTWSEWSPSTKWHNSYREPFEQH
Procedure: (§1) The protein A was chemically coupled to a CM5 chip, and an appropriate amount of the antibody was immobilized by a capture method such that the Rmax was less than 50 RU and the flow rate for the capture was 10 μl/min. The antigen was subject to gradient dilution, and the flow rate in the instrument was switched to 30 μl/min. The antigen was flowed through the reference channel and the channel with the immobilized antibody sequentially in an ascending order of concentration, and the running buffer was flowed through as a negative control. After each binding and dissociation was complete, the chip was regenerated with glycine, pH 1.5. Fitting was performed with the build-in software in the instrument according to a 1:1 binding model. The binding rate constant kₐ, the dissociation rate constant kd, and the equilibrium dissociation constant KD values of the antibody were calculated. Dupilumab was obtained by purchasing a commercially available medicine.
(§2) To further narrow down the key amino acids that PD2-31 binds to, multiple mutants of hIL-4Rα were designed in Loop 2 (V40FLLSEA46) and Loop 3 (M65[…]73) (Table 2). The wild-type hIL-4Rα (hIL-4Rα-ECD) and hIL-4Rα mutants were prepared using standard techniques. Briefly, the expression plasmids containing the extracellular domain of wild-type hIL-4Rα and different mutated hIL-4Rα were constructed and transfected into HEK 293F cells. After expression, the extracellular domain of wild-type hIL-4Rα and hIL-4Rα mutants with C-terminus his-tag were purified by Nickel chromatography. Purified proteins of wild-type hIL-4Rα and hIL-4Rα mutants were analyzed for interaction with PD2-31 and Dupilumab. The interaction was studied by Biacore T200, according to the methods in Example 2.

hIL-4Rα-Mu245 = biological target: T2, hIL-4Rα-Mu245 (human, UniProt P24394 26-232); assay: SPR, Biacore T200, by the methods of Example 2
T2 construct: Printed positions fit the mature protein; also called A71L/D72R/N73A; not shown: C-terminal his-tag
T2 chain: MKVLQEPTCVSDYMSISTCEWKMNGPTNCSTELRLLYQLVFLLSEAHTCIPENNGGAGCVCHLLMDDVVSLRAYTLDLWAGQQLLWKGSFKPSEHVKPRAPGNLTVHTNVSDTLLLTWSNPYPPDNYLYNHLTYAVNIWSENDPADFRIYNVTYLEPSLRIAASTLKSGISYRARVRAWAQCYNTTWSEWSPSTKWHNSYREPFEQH
Procedure: as §1, §2

hIL-4Rα-Mu239 = biological target: T3, hIL-4Rα-Mu239 (human, UniProt P24394 26-232); assay: SPR, Biacore T200, by the methods of Example 2
T3 construct: Printed positions fit the mature protein; also called M65I/D66A/D67A; not shown: C-terminal his-tag
T3 chain: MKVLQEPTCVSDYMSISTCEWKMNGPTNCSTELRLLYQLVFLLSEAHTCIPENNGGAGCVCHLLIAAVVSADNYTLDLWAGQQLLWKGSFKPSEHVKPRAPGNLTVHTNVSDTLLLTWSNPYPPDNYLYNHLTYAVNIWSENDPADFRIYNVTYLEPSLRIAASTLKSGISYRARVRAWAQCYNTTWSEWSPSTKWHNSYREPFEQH
Procedure: as §1, §2

[1] = biological target: T4, hIL-4Rα-ECD (wild-type hIL-4Rα extracellular domain with C-terminus his-tag) (human, UniProt P24394 26-232); assay: SPR, Biacore T200, by the methods of Example 2; mean of three experiments
T4 construct: Made in HEK 293F cells and purified on nickel; not shown: C-terminal his-tag
Procedure: as §1, §2

B1: QX005N (PD2-31) (antibody, V domains shown)
VH: EVQLVESGGGLVQPGGSLRLSCAASGIDLRTNSMSWVRQAPGKGLEWVGIIGSSGYMDYASWAKGRFTISRDNSKNTLYLQMNSLRAEDTAVYYCARHGDSSSFALWGQGTLVTVSS
VL: DIQMTQSPSSLSASVGDRVTITCRASESVYKNNRLSWYQQKPGKAPKLLIYEASKVASGVPSRFSGSGSGTDFTLTISSLQPEDFATYYCAGAYRGNIYPFGQGTKVEIK
notes: Humanized from rabbit clone #2, expressed as a full antibody in ExpiCHO-S cells (heavy chain 48.5 kDa, light chain 23.7 kDa)
Kd (hIL-4Rα-Mu243): 0.131 nM
koff (hIL-4Rα-Mu243): 9.45e-05 s⁻¹
kon (hIL-4Rα-Mu243): 723000 M⁻¹ s⁻¹
Kd (hIL-4Rα-Mu245): 1.45 nM
koff (hIL-4Rα-Mu245): 0.00029 s⁻¹
kon (hIL-4Rα-Mu245): 201000 M⁻¹ s⁻¹
Kd (hIL-4Rα-Mu239): 0.163 nM
koff (hIL-4Rα-Mu239): 2.71e-05 s⁻¹
kon (hIL-4Rα-Mu239): 166000 M⁻¹ s⁻¹
Kd [1]: 0.169 nM
koff [1]: 0.000134 s⁻¹
kon [1]: 779000 M⁻¹ s⁻¹

Source: patent publication US20220073631A1 (QYUNS THERAPEUTICS, published 2022)
